Measurements as given in publication PMC11199487, “Hub stability in the calcium calmodulin-dependent protein kinase II” (Communications Biology, 2024).
Substitutions are numbered along the chain they refer to. In names and notes the source's numbering stands. Several values for one entry are separate records, joined by “and”; a condition that tells them apart may be missing. Identical values can stand only once.

B1: CaMKIIβ hub (6His-V15-rCaMKIIβ hub construct) (domain or fragment, rat)
chain: ARKQEIIKTTEQLIEAVNNGDFEAYAKICDPGLTSFEPEALGNLVEGMDFHRFYFENLLAKNSKPIHTTILNPHVHVIGEDAACIAYIRLTQYIDGQGRPRTSQSEETRVWHRPDGKWQNVHFHCSGAPVAPLQ
notes: rat CaMKII beta association domain (AD); made from the holoenzyme construct by removal of the kinase domain; also called isolated β hub; native β; source: E. coli BL21/Rosetta, co-transformed with a protein phosphatase plasmid, purified (nickel Hi-Trap); not shown: Venus, N-terminal, kept
B2: CaMKIIβ hub F458A (domain or fragment, rat)
chain: B1 chain with F50A
notes: rat CaMKII beta association domain (AD) with F458A; as m2 with the substitution; The methods describe F458A mutagenesis only of 6His-V15-rCaMKIIβ (the holoenzyme construct); The results say that F458A disassembles isolated β hubs; also called βF458A (isolated hub); source: E. coli BL21/Rosetta, co-transformed with a protein phosphatase plasmid, purified (nickel Hi-Trap); not shown: Venus, …
B3: CaMKIIα hub (6His-V15-mCaMKIIα hub construct: Venus tag, 15-amino-acid linker, α association domain) (domain or fragment)
chain: VRKQEIIKVTEQLIEAISNGDFESYTKMCDPGMTAFEPEALGNLVEGLDFHRFYFENLWSRNSKPVHTTILNPHIHLMGDESACIAYIRITQYLDAGGIPRTAQSEETRVWHRRDGKWQIVHFHRSGAPSVLPH
notes: CaMKII alpha association domain (AD); made from the holoenzyme construct by removal of the kinase domain; The plasmid is named mCaMKIIα, but the introduction speaks of rat α hubs; also called isolated α hub; CaMKIIα AD hub; source: E. coli BL21/Rosetta, co-transformed with a protein phosphatase plasmid, purified (nickel Hi-Trap); not shown: Venus, N-terminal, kept
B4: CaMKIIβ holoenzyme T287A/T306A/T307A (6His-V15-rCaMKIIβ triple mutant) (enzyme, rat, UniProt P08413 1-542, looked up)
chain: MATTVTCTRFTDEYQLYEDIGKGAFSVVRRCVKLCTGHEYAAKIINTKKLSARDHQKLEREARICRLLKHSNIVRLHDSISEEGFHYLVFDLVTGGELFEDIVAREYYSEADASHCIQQILEAVLHCHQMGVVHRDLKPENLLLASKCKGAAVKLADFGLAIEVQGDQQAWFGFAGTPGYLSPEVLRKEAYGKPVDIWACGVILYILLVGYPPFWDEDQHKLYQQIKAGAYDFPSPEWDTVTPEAKNLINQMLTINPAKRITAHEALKHPWVCQRSTVASMMHRQEAVECLKKFNARRKLKGAILAAMLATRNFSVGRQTTAPATMSTAASGTTMGLVEQAKSLLNKKADGVKPQTNSTKNSSAITSPKGSLPPAALEPQTTVIHNPVDGIKESSDSTNTTIEDEDAKARKQEIIKTTEQLIEAVNNGDFEAYAKICDPGLTSFEPEALGNLVEGMDFHRFYFENLLAKNSKPIHTTILNPHVHVIGEDAACIAYIRLTQYIDGQGRPRTSQSEETRVWHRPDGKWQNVHFHCSGAPVAPLQ
notes: rat CaMKII beta, open reading frame codon optimized for bacterial expression, with T287A, T306A and T307A; Only the association-domain hub is resolved in the cryo-EM maps; also called engineered β holoenzyme; source: E. coli BL21/Rosetta, co-transformed with a protein phosphatase plasmid, purified (nickel Hi-Trap); not shown: Venus, N-terminal, kept

How the values were obtained:
[1] = target: the molecule itself; assay: cryo-EM structure; isolated Venus-tagged hubs, 20 mg/mL, flash-frozen stocks thawed on ice, grids plunge-frozen at 4 °C and 100% humidity; self-assembly of the association domains
[2] = target: the molecule itself; assay: SEC; EnRich SEC 650 column, 50 mM Tris, 150 mM KCl, 0.2 mM TCEP, 2% glycerol, pH 8.0, room temperature, thawed stocks applied without dilution, 250 μL, 1 mL/min
[3] = target: the molecule itself; assay: cryo-EM structure; Venus-tagged β holoenzyme sample, 20 mg/mL, fresh rather than flash-frozen preparation, grids plunge-frozen at 4 °C and 100% humidity; only the hub resolved

| Protein | stoichiometry N [1] | other results |
| --- | --- | --- |
| B1 | 12 and 14 |  |
| B2 |  | stoichiometry N [2]: 2 |
| B3 | 12 and 14 |  |
| B4 |  | stoichiometry N [3]: 14 and 12 |
